Data on twelve molecules can be found in publication PMC12785156 (2025).

Positions count from the first letter of the chain named.

The labels stand for the following.
B1: AtHPPD-F428Y (protein)
chain: MGHQNAAVSENQNHDDGAASSPGFKLVGFSKFVRKNPKSDKFKVKRFHHIEFWCGDATNVARRFSWGLGMRFSAKSDLSTGNMVHASYLLTSGDLRFLFTAPYSPSLSAGEIKPTTTASIPSFDHGSCRSFFSSHGLGVRAVAIEVEDAESAFSISVANGAIPSSPPIVLNEAVTIAEVKLYGDVVLRYVSYKAEDTEKSEFLPGFERVEDASSFPLDYGIRRLDHAVGNVPELGPALTYVAGFTGFHQFAEFTADDVGTAESGLNSAVLASNDEMVLLPINEPVHGTKRKSQIQTYLEHNEGAGLQHLALMSEDIFRTLREMRKRSSIGGFDFMPSPPPTYYQNLKKRVGDVLSDDQIKECEELGILVDRDDQGTLLQIFTKPLGDRPTIFIEIIQRVGCMMKDEEGKAYQSGGCGGFGKGNFSELYKSIEEYEKTLEAKQLVG
modifications: GST carrier omitted. Limits not printed: ARM region taken as everything after the U-box (240-314) to the C-terminus
B2: AtHPPD-F131Y (protein)
chain: B1 chain with F131Y, Y428F
modifications: GST carrier omitted. Limits not printed: ARM region taken as everything after the U-box (240-314) to the C-terminus
B3: AtHPPD-F202Y (protein)
chain: B1 chain with F202Y, Y428F
modifications: GST carrier omitted. Limits not printed: ARM region taken as everything after the U-box (240-314) to the C-terminus
B4: AtHPPD-F64Y (protein)
chain: B1 chain with F64Y, Y428F
modifications: GST carrier omitted. Limits not printed: ARM region taken as everything after the U-box (240-314) to the C-terminus
B5: AtHPPD-F47Y (protein)
chain: B1 chain with F47Y, Y428F
modifications: GST carrier omitted. Limits not printed: ARM region taken as everything after the U-box (240-314) to the C-terminus
B6: AtHPPD-F29Y (protein)
chain: B1 chain with F29Y, Y428F
modifications: GST carrier omitted. Limits not printed: ARM region taken as everything after the U-box (240-314) to the C-terminus
B7: AtHPPD-F132Y (protein)
chain: B1 chain with F132Y, Y428F
modifications: GST carrier omitted. Limits not printed: ARM region taken as everything after the U-box (240-314) to the C-terminus
B8: AtHPPD-F419Y (protein)
chain: B1 chain with F419Y, Y428F
modifications: GST carrier omitted. Limits not printed: ARM region taken as everything after the U-box (240-314) to the C-terminus
B9: AtHPPD-F424Y (protein)
chain: B1 chain with F424Y, Y428F
modifications: GST carrier omitted. Limits not printed: ARM region taken as everything after the U-box (240-314) to the C-terminus
B10: AtHPPD-F52Y (antibody)
chain: B1 chain with F52Y, Y428F
modifications: GST carrier omitted. Limits not printed: ARM region taken as everything after the U-box (240-314) to the C-terminus
B11: AtHPPD-F215Y (protein)
chain: B1 chain with F215Y, Y428F
modifications: GST carrier omitted. Limits not printed: ARM region taken as everything after the U-box (240-314) to the C-terminus
B12: His-AtHPPD (Arabidopsis thaliana 4-hydroxyphenylpyruvate dioxygenase) (enzyme)
chain: B1 chain with Y428F

The target in the first test is T1, GST-PUB11-ARM (Arabidopsis thaliana).
T1 chain: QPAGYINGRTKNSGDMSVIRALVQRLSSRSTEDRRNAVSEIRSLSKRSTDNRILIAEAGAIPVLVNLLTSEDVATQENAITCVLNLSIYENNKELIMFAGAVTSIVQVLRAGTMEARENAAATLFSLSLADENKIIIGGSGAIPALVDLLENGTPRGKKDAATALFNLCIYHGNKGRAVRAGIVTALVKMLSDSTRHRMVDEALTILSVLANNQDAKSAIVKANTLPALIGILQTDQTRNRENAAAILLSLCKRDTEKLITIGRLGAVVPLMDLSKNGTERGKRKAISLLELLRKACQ
The test can be described thus: MST.
For orientation: Kd means the free concentration of one partner at which half of the binding sites on the other are occupied at equilibrium, for simple one-to-one binding. Turning to B1, the Kd was 1.3 µM.
Still for that read-out and setting: to B2 belongs 1.26 µM.
Take B3: binding was characterised by a dissociation constant (Kd) of 1.65 µM.
In the case of B4, binding was put at a Kd of 0.37 µM.
On the same count and under the same terms, under B5 stands 0.23 µM; under B6, 1.08 µM.
B7 had a Kd of 2.38 µM.
The molecule B8 displayed a Kd of 46.7 µM.
The same measure, in the same setting: under B9 stands 1.75 µM.
B10 returned a Kd of 1.6 µM.
As for B11, the affinity, expressed as Kd, was 1.59 µM.

The next test concerns the target GST. The test is described as follows: MST.
In the case of B12, the Kd was greater than 1000 µM.
